In patent US20130171163:

Legend:
VEGFR2 = VEGFR2 (UniProt P35968)
[1] = biological target: insulin-like growth-factor-1 receptor beta subunit (IGF-1Rβ) (UniProt P08069)
Chain of insulin-like growth-factor-1 receptor beta subunit (IGF-1Rβ) (P08069 whole entry, looked up, tested part not stated): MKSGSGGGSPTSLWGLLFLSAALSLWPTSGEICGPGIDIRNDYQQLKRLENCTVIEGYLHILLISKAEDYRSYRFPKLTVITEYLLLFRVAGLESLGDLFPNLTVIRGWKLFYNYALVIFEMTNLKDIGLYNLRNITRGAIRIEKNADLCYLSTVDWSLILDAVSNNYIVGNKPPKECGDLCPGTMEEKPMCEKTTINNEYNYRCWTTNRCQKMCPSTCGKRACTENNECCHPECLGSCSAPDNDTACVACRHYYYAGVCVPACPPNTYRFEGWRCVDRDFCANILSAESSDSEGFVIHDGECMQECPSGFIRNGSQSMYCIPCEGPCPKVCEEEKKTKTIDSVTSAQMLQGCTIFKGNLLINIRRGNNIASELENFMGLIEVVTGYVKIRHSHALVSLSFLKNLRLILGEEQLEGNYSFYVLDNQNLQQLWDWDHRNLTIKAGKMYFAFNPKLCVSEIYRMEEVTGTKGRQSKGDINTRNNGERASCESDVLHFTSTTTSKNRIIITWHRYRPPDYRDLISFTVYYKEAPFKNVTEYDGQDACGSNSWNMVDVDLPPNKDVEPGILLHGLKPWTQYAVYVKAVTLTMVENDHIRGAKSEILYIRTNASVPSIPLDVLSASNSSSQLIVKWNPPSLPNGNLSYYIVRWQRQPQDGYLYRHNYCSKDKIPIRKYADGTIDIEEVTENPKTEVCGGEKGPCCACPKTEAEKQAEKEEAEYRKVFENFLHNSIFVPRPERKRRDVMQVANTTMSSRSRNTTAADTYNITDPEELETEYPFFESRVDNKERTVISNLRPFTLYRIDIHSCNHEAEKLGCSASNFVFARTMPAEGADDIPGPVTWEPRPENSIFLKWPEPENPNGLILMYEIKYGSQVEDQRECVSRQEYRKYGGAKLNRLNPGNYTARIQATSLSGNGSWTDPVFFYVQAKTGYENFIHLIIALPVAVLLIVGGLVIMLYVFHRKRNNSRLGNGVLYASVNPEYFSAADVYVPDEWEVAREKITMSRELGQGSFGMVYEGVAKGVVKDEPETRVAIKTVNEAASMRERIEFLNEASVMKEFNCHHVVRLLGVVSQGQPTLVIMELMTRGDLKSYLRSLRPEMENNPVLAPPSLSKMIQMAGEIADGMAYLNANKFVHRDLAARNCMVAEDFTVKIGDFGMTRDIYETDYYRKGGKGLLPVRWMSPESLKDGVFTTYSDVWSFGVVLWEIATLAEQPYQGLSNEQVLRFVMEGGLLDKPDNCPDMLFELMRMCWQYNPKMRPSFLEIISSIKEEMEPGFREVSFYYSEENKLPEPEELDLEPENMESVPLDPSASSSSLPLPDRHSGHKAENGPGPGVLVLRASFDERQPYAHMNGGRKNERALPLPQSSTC

Chain of VEGFR2 (P35968 20-1356): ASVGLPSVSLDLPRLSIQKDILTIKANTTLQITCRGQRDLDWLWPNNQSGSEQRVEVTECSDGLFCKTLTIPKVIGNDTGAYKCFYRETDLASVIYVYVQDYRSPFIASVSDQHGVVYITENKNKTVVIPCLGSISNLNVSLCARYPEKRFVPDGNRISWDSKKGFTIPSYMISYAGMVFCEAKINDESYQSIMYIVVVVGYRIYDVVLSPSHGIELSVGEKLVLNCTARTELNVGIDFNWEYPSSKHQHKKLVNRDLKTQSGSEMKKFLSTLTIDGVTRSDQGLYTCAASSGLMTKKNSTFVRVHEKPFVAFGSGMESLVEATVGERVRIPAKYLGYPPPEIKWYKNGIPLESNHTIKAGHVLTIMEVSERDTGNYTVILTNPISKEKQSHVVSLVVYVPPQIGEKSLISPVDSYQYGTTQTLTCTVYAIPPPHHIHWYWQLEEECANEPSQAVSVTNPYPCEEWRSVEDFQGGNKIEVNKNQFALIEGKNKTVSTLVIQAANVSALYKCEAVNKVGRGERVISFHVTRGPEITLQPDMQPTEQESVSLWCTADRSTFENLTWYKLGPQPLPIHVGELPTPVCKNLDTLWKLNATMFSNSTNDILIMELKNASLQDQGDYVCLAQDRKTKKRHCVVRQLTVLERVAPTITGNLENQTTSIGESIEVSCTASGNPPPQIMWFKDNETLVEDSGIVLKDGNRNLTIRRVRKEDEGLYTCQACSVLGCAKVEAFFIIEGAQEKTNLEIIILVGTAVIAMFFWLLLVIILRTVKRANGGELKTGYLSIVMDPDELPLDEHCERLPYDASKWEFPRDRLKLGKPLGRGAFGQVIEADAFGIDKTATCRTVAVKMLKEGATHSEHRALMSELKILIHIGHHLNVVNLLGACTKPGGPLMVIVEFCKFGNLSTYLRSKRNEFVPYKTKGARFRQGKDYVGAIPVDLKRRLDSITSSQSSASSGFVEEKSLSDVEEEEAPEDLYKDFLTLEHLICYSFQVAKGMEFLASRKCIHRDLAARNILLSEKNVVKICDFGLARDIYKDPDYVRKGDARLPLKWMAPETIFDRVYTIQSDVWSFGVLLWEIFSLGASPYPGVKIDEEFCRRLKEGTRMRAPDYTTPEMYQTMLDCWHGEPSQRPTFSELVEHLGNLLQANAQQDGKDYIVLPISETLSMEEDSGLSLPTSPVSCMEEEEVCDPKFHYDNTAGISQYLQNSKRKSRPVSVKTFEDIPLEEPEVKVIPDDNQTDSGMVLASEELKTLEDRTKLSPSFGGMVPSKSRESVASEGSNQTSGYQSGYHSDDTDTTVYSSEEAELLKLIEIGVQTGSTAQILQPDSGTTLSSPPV

leukocyte antigen-related protein tyrosine phosphatase (LAR)
VEGF-induced tyrosine phosphorylation of VEGFR2 in HUVECs overexpressing LAR (AdLAR) (VEGFR2): overexpression of LAR had no effect on VEGF-induced tyrosine phosphorylation of VEGFR2 in HUVECs
IGF-1-induced tyrosine phosphorylation of IGF-1Rβ in HUVECs overexpressing LAR (AdLAR); IP with anti-IGF-1Rβ, Western blot with anti-phosphotyrosine [1]: LAR overexpression inhibited IGF-1-induced tyrosine phosphorylation of IGF-1Rβ in a dose-dependent manner, with maximum inhibition at 2.5 MOI
IGF-1Rβ autophosphorylation in IGF-1-treated HUVECs after LAR knockdown with siRNA [1]: knockdown of endogenous LAR with LAR-specific siRNA (FIGS. 3A-3B) significantly increased IGF-1Rβ activity, without an apparent effect on IGF-1Rβ expression levels, in HUVEC treated with IGF-1
